# Biological target: Vδ1 chain-containing γδ TCR on γδ T cells
# Assay: cell-based or functional assay
Binder,T cell degranulation (EC50 µg/ml - 3 donors),Killing assay (EC50 µg/ml - 2 or 3 donors)
"1139_P01_E04 (antibody, V domains shown) VH: QVQLQQSGPGLVKPSQTLSLTCAISGDSVSSNSAAWNWIRQSPSRGLEWLGRTYYRSKWYNDYAVSVRSRITINPDTSKNQFSLQLNSVTPEDTAVYYCARSWNDAFDIWGQGTTVTVSS VL: DIVMTQSPSTLSASIGDRVTITCRAGQSISTWLAWYQQKPGKAPKLLIYDASSLESGVPLRFSGSGSGTDFTLTISSLQPEDFATYYCQQSYSTPLTFGGGTKVEIK",0.005 µg/mL,
"1245_P01_G09 (antibody, V domains shown) VH: QVQLQQSGPGLVKPSQTLSLTCAISGDSVSSNSAAWNWIRQSPSRGLEWLGRTYYGSKWYNEYALSVKSRIIINPDTSKNQFSLQLNSVTPEDTAVYYCARDYYYSMDVWGQGTLVTVSS VL: DIVMTQSPSTLSASIGDRVTITCRAGQSISTWLAWYQQKPGKAPKLLIYDASSLESGVPLRFSGSGSGTEFTLAISSLQPDDFATYYCQQSYSTPVTFGQGTKVEIK",0.001 µg/mL,
"1252_P01_C08 (antibody, V domains shown, Anti-Vδ1 antibody with a lambda light chain) VH: EVQLLESGGGLVQPGRSLRLSCAASGFTVSSNYMSWVRQAPGKGLEWVSVIYSGGSTYYADSVKGRFTISRDNSKNTLYLQMNSLRAEDTAVYYCASPIELGAFDIWGQGTLVTVSS VL: SSYELTQPPSVSVAPGKTARITCGGNNIGSQSVHWYQQKPGQAPMLVIYYDSDRPSGIPERFSGSNSGNTATLTISRVEAGDEADYYCQVWDSSSDHVVFGGGTKLTVL",,0.02 µg/mL
"1245_P01_G06 (antibody, V domains shown) VH: QVQLVESGGGLVKPGGSLRLSCAASGFTFSDYYMSWIRQAPGKGLEWVSYISSSGSTIYYADSVKGRFTISRDNAKNSLYLQMNSLRAEDTAVYYCARHSWNDAFDVWGQGTLVTVSS VL: not shown",0.001 µg/mL,
"1245_P01_E07 (antibody, V domains shown) VH: QVQLVESGGGLVKPGGSLRLSCAASGFTFSDYYMSWIRQAPGKGLEWVSYISSSGSTIYYADSVKGRFTISRDNAKNSLYLQMNSLRAEDTAVYYCARVDYADAFDIWGQGTLVTVSS VL: DIQMTQSPSSLSASVGDRVTIACRAGQSIGTYLNWYQQKPGKAPKLLIYVASSLQSGVPSRFSGSGSGTEFTLTISSLQPEDFATYYCQQSYSTLLTFGRGTKVEIK",,0.06 µg/mL
"1245_P02_G04 (antibody, V domains shown) VH: QVQLQQSGPGLVKPSQTLSLTCAISGDSVSSKSAAWNWIRQSPSRGLEWLGRTYYRSKWSTDYAASVKSRITINPDTSKNQLSLQLNSVTPEDTAVYYCARTWSGYVDVWGQGTLVTVSS VL: DIQMTQSPPALSASVGDRVTITCRASQDINDWLAWYQHKPGKAPKLLIYDASSLESGVPSRFSGSGSGTEFTLTISSLQPDDFATYYCQQSYSTPQVTFGQGTRLEIK",0.002 µg/mL,0.1 µg/mL

# Reference: patent publication US20230330143A1 (GAMMADELTA THERAPEUTICS, published 2023)
